Experimental findings from patent US8815527 (Stanford University, dated 2014) are described below.

Experiment [1] addresses p38 MAPK phosphorylated at Thr180/Tyr182. Briefly: flow cytometry, Jurkat T cells +Anisomycin; gate around the population with phospho-p38 stain about 15 to 100.
Experiment [2] concerns the target AKT phosphorylated at Ser473. In words: flow cytometry, Jurkat T cells +PDGF, AKT+ gated; number stands under the right-hand population (ser473 stain about 50, thr308 stain about 50); one dotted box encloses both populations. For orientation: Flow cytometry measures light scatter and fluorescence of single cells or particles in a stream.
Experiment [3] addresses T1, Leukocyte Function Antigen-1 (LFA-1) on the cell surface (human, UniProt P20701 26-1170; P05107 23-769). In words: cell-based or functional assay.
For experiment [4], the target named is T1, Leukocyte Function Antigen-1 (LFA-1) on …. In words: flow cytometry, ICAM-2-FITC titration on Jurkat cells, single cell analysis. As for the experimental part:
Molecular weight was calculated using relative distance migration from a molecular weight standard. Concentration was determined using serial dilutions of BSA as a standard. […] Mean fluorescence intensity was plotted per time of a gated homogenous cell population. Flow rate was maintained at 200-300 cells/second, with fluorescence intensity values acquired at 10 millisecond intervals for 1200 seconds. […] Cells were washed 1×, and analyzed for mean fluorescent intensity (MFI) of 10^4 cells. […] Values were fit to the equation Y=m1*M0/(m2+M0) (see materials and methods).

In experiment [5] the target is β4 integrin (NIH3T3-derived cells) (UniProt A2A863 29-1818, limits assumed). In words: two-column affinity chromatography (ICAM-2 solid support, then streptavidin-agarose) and immunoblot. In general terms: Immunoblotting shows a protein as a band on a membrane.
β4 integrin (NIH3T3-derived cells), sequence (A2A863 29-1818 limits assumed): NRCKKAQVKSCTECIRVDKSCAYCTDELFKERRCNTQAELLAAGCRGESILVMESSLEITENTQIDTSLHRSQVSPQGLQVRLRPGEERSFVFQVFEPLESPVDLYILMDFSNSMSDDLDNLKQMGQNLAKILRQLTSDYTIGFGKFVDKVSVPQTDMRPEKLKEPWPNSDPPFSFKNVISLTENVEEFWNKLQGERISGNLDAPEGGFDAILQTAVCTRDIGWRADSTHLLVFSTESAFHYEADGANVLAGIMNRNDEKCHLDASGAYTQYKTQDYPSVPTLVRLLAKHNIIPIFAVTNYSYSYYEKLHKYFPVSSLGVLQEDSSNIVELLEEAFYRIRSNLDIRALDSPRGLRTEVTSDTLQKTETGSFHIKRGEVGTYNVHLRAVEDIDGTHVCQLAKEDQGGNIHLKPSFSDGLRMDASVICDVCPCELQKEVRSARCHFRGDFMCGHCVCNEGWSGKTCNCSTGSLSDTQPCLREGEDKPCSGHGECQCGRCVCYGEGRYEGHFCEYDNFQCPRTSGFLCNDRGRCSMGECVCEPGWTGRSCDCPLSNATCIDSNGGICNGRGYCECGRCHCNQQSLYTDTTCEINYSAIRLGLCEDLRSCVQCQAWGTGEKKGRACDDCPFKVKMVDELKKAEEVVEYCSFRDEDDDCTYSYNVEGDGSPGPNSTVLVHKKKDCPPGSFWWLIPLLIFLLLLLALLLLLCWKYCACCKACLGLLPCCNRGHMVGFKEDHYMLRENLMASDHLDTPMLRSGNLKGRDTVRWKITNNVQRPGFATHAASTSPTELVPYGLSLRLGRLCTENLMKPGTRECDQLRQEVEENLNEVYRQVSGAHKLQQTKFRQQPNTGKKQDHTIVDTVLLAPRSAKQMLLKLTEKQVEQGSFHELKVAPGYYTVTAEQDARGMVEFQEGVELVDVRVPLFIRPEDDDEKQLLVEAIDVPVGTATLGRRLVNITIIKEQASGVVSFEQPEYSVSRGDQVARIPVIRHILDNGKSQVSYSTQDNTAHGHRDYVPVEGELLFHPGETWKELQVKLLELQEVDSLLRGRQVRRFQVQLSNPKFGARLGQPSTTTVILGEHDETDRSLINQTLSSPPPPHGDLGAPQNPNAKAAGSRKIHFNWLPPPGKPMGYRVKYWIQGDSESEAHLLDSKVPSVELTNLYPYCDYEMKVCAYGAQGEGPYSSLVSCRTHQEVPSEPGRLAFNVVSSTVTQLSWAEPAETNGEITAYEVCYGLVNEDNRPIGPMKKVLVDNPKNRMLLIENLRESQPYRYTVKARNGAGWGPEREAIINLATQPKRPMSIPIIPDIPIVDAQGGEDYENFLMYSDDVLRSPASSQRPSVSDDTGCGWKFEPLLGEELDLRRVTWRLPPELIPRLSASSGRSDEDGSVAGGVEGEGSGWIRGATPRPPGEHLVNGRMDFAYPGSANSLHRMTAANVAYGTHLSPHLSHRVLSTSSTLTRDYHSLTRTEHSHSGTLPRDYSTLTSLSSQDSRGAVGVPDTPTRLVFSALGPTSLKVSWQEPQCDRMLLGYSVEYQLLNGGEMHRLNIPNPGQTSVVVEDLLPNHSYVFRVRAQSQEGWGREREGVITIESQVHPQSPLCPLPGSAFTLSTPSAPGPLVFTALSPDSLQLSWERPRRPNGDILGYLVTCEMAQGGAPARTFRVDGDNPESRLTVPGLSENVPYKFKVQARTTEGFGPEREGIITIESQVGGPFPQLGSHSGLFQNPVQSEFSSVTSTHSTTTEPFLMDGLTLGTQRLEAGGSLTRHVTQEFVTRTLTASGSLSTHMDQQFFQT
Another experiment concerns the target ezrin in NIH3T3 cells (UniProt P26040 1-586). Briefly: co-immunoprecipitation (IP ICAM-2, immunoblot ezrin) from transduced NIH3T3 cells. The source says: Control lysates were not subjected to immunoprecipitation and reflect positive controls for detected interacting protein. […] Phosphotransfer of ATP to peptide substrate was detected by scintillation counting and presented as counts per minute CPM.

In general, Kd refers to the equilibrium constant for the complex coming apart. A low value points to tighter binding.

T1 sequence (P20701 26-1170, chain 1 of 2): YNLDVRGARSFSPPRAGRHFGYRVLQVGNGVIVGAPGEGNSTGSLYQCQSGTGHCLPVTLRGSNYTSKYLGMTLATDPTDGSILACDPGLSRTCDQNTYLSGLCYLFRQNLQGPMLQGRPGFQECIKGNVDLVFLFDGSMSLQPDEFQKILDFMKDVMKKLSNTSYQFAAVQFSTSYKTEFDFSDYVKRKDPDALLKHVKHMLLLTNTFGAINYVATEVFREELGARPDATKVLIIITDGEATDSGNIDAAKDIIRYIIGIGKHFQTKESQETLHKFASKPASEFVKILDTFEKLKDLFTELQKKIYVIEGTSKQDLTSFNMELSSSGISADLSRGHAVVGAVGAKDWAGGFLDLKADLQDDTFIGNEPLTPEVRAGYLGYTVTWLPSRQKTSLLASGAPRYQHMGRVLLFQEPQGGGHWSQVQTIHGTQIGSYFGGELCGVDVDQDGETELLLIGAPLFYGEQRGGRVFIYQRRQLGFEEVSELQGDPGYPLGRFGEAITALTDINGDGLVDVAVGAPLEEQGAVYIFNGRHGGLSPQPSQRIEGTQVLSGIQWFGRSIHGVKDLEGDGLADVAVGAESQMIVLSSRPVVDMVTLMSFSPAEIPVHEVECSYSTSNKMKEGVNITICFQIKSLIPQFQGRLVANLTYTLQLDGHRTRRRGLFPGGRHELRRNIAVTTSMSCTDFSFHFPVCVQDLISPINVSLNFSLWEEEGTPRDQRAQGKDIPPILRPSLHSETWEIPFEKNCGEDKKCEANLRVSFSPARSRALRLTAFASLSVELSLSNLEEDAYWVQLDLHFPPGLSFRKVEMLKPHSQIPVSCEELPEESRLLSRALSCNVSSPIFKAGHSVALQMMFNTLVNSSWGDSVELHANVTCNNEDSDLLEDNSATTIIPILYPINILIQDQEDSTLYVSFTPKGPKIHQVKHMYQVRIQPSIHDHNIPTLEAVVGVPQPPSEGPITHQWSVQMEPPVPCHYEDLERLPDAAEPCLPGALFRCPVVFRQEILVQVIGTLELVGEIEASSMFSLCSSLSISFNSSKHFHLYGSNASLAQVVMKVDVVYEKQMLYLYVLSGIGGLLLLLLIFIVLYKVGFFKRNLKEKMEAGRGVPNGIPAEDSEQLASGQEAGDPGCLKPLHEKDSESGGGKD
T1 sequence (P05107 23-769, chain 2 of 2): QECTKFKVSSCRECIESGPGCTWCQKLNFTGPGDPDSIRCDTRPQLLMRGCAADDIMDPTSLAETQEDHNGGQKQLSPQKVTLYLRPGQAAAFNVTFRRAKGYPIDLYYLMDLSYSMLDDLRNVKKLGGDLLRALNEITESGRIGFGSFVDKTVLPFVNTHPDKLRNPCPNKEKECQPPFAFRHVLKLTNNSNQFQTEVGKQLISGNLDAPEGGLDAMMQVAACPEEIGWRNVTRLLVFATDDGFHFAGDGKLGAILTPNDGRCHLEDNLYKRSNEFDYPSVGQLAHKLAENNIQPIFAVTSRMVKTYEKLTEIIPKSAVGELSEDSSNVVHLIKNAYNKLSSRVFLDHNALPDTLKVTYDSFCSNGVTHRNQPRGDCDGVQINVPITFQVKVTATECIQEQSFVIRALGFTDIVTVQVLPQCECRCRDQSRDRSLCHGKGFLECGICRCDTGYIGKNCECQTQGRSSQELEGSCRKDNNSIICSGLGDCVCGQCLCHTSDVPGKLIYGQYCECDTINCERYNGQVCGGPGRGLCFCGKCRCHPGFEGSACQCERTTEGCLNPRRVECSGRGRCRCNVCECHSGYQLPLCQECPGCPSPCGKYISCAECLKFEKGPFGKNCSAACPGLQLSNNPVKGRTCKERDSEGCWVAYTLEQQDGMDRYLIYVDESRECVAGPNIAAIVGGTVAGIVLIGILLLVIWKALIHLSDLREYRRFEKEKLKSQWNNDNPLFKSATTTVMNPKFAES
ezrin in NIH3T3 cells, sequence (P26040 whole entry): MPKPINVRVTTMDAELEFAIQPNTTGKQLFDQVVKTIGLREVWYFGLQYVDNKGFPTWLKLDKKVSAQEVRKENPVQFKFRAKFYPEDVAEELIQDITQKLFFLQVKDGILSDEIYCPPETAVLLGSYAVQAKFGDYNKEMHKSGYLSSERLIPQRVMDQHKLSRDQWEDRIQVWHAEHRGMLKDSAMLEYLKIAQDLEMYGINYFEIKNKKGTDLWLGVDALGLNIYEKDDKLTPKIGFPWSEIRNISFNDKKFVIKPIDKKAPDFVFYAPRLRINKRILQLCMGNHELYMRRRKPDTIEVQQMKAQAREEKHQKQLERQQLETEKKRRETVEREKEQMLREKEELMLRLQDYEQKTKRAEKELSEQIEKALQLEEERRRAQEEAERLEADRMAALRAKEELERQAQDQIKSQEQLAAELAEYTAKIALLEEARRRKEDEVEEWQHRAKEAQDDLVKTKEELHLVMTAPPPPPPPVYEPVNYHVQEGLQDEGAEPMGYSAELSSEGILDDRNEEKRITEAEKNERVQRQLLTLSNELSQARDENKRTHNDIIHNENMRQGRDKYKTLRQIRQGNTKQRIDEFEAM

Turning to “phospho-p38 MAP kinase (Thr180/Tyr182) monoclonal antibody 28B10”, in experiment [1], the percent of cells in the drawn gate (number printed beside the gate) amounted to 13.3.

As to “phospho-AKT Ser473 monoclonal antibody 4E2”, the percent of gated cells (number printed below the gate) in experiment [2] came to 43.9.

B1: soluble human ICAM-2 protein, biochemically purified from retrovirally transduced NIH3T3 cells (ligand, UniProt P13598 25-275, looked up)
chain: KVFEVHVRPKKLAVEPKGSLEVNCSTTCNQPEVGGLETSLDKILLDEQAQWKHYLVSNISHDTVLQCHFTCSGKQESMNSNVSVYQPPRQVILTLQPTLVAVGKSFTIECRVPTVEPLDSLTLFLFRGNETLHYETFGKAAPAPQEATATFNSTADREDGHRNFSCLAVLDLMSRGGNIFHKHSAPKMLEIYEPVSDSQMVIIVTVVSVLLSLFVTSVLLCFIFGQHLRQQRMGTYGVRAAWRRLPQAFRP
modifications: FITC (NHS-fluorescein) conjugate where used as ICAM-2-FITC, sites not stated
notes: mature; also called sICAM-2; soluble ICAM-2
On to B1, for which, in experiment [3], the “stimulus needed for similar expression of CD69 and CD25 on naive CD4+ T cells, 6 hr” value came to 10000 fold. For the same molecule, the Kd in experiment [4] amounted to 0.217 µM. In addition, the binding result in experiment [5] is recorded as “no binding”.

B2: human ICAM-2, full length, in cells (receptor, UniProt P13598 25-275, looked up)
chain: B1 chain
notes: whole, on cells; Used in co-immunoprecipitations from cell lysates, FACS staining and cell mixing assays; also called ICAM-2 cells; CD102
In the case of B2, the binding result with ezrin in NIH3T3 cells is “binds”.
